Measured values from the supplement of paper PMC12764529.
± gives the half width of the 95% confidence interval.

Assay: folding stability dG unfold from chymotrypsin proteolysis; higher = more stable
How it was run: (§1)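 Designed mini-proteins with no cysteine and under 80 residues were kept only if AlphaFold2 dimer inter-PAE was above 15. In a PA-tagged cDNA display construct, they were digested with trypsin and chymotrypsin and then sequenced. K50 was inferred by Bayesian fitting of counts, and unfolding free energy was derived per protease or combined against a sequence-predicted unfolded-state K50 and a shared folded-state K50.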

| Sequence | folding stability dG unfold |
| --- | --- |
| SMKKTIIIKVKKEDMTPEEIAKKLAELGYEVEIVDVEYDEETEEVYITVEIYDENGELIEKIEIKLPRKDSA [r9_879_TrROS_Hall] | 4 ± 0.711 kJ/mol |
| SAMKIKVPPGAEIITEDGEKIEPGQEVEVTDIEFDEETGEVHITVKIKNPETGEEIEEKVTIRFPKEEESAG [r14_258_TrROS_Hall] | 4.09 ± 0.176 kJ/mol |
| SMIDIEISTDPNNPNVITVTAKYPDPEKAKEYLEKKLKEEYDVISISYEYEPENPIITFTFTYASPEKPQSA [r9_1120_JUSTAS] | 13 ± 0.218 kJ/mol |
| SAGGSAGGSETVTLTLVVDSPEEAKALIDALKKAGIKEVTLEEKDGKLVLTITMSKEELEKLKSAGGSAGGS [r12_846_TrROS_Hall] | 15.9 ± 0.544 kJ/mol |
| SAGGSAGGSAEPVRLVVVTPGFPDGPPIPVEELEALLEAEDVTVVDPFTIPELGYVVLLVEASAGGSAGGSA [r18_466_TrMRF] | 3.05 ± 0.385 kJ/mol |
| SAGGVWIEITFLMPAEQLLNFIKNLAEEFGYQVNIDVKIQPYPNGPMVTHEIEIKPLPPKVPEEDQESAGGS [r16_262_TrROS] | 16.7 ± 0.418 kJ/mol |
| SAGMKKKKIKKVEIEIKKGEKTIRVKLENGEEIEYKFKEEDLEEALKKIAEKLGLKKGDKIKIVEIEIESAG [r5_923_TrROS_Hall] | 3.8 ± 0.544 kJ/mol |
| SAGGSAGGSAMKVITLPENADINKVIEAVEAGSPILVKIVDPKSSKTTDLPLPSKEAVEKLSAGGSAGGSAG [r3_362_JUSTAS] | -1.65 ± 0.753 kJ/mol |
| SAGGSAGGSAGPALRIPFLVERPDGSPFWAEARVYEDGTVELRIYGDEPIATFTFPLDELSAGGSAGGSAGG [r11_327_TrMRF] | 6.71 ± 0.628 kJ/mol |
| SAGGSAGGSAGGMKIKNAEIVEVKEENGKKTLLVKNKETGKYYKITIDDNKITIEEVKVPSAGGSAGGSAGG [r7_940_TrROS_Hall] | 17.3 ± 0.544 kJ/mol |
| SAGWYIKVEVYYGGKKHTFMIPRKQAKELRKKYPPGDEIPIPFNGRDVEIRVQVIPPPPPSPEDAADNKSAG [r5_669_TrROS] | 11.5 ± 0.502 kJ/mol |
| SAGGLAPVYKTEDGVYLITPYNPETGELLETIPISEEDIEELSKEYGRDLTIEEIVKKLGYETEITVASAGG [r13_836_TrMRF] | 4.14 ± 0.126 kJ/mol |
| SAGGSAGGSAMIETTVSFDPSTGTVTTTTTYTDPNGGYTKSSTTVTPVPTPAPPPPAAPNRVSAGGSAGGSA [r18_361_JUSTAS] | 2.43 ± 0.28 kJ/mol |
| SAGGGPFGIPFPFPIEDPDRLDLVEGLVAELEEFFRSLGAGPLTAERVGDTTYVVLVPFDGKPIVSGSAGGS [r16_703_TrMRF] | 8.17 ± 0.276 kJ/mol |
| SMLVLRLPDNRLAVLEYDPETKRLRVLVVDPESGRLTVAEIHPETGEITVDEYTLLPNGEPLPHRFELPLSA [r9_1073_TrMRF] | 10.6 ± 0.201 kJ/mol |
| SAGGKKKLTLEIKIKVPKEEEEKAKEKAKKLAEELAKKLKEAGYKVKVTVEIDEETGEITVKVEVELPSAGG [r13_755_TrROS_Hall] | 14.8 ± 2.3 kJ/mol |
| SAGGSAGGSAGGSGPVPVTIKSVTTYPEKDVYKVETVPATPEPITITLSPEELSDVVILSAGGSAGGSAGGS [r4_51_JUSTAS] | -1.83 ± 0.837 kJ/mol |
| SALKIEISFPGNAGEVRERVLGREDGSYEVEFLVTFPTPGDGIPSVLRVTYRVDPVSGKIEPRLEPVDASAG [r14_590_TrMRF] | 13.6 ± 0.151 kJ/mol |
| SAGGSAGGMVIVFDKKNKTIYIYDKKTGKKIEIKVKSIEEAKEAIKKLFPNKKVEIVEVKIFKPSAGGSAGG [r6_286_TrROS_Hall] | 7.94 ± 0.377 kJ/mol |
| SAGGSAGGSDDDDAKKAMEQMKPPPIPIKIQVKIEYDPSLGWLKVEIHFFGFGLRITGTIPIDSAGGSAGGS [r20_230_TrROS] | 19.1 ± 1.3 kJ/mol |
| SAGGMSPELKKNKNVEKVIYNKKTGKVFVYNKKTKKLYIFTKNGKKIEIKMSKDEVEKLLKKGFKPISAGGS [r16_745_TrROS_Hall] | 13.5 ± 0.669 kJ/mol |

Assay: folding stability dG unfold (combined trypsin and chymotrypsin); higher = more stable
How it was run: as §1

| Sequence | folding stability dG unfold |
| --- | --- |
| SAKTVKVRIELTLTVVKVTLDPETGELKVEEVKTLTLEIELEMSEEDLEKARRALEEELKRLLEELGIPSAG [r14_308_TrROS_Hall] | 16.3 ± 1.55 kJ/mol |
| SAGGSAGGDIEVRPVGVVPTPDGRLVRVEEVTFPETGRTLLVAVDLEPGRVYVFDPETGEWREESAGGSAGG [r6_114_TrMRF] | 5.89 ± 0.314 kJ/mol |
| SAGGSAGGSMTETVEKAPDGTPVLVLKETEESTGDGGKTILRPSTVLLPPGTVLSTEDEVILESAGGSAGGS [r12_581_JUSTAS] | 6.37 ± 0.301 kJ/mol |
| SAGGSAGGSAMKFPKGAKIEIVVTEDKVYVRIKTPGGKEIEVEMTLEELKKLGFEVEIVEEESAGGSAGGSA [r18_125_TrROS_Hall] | 9.16 ± 0.628 kJ/mol |
| SAGGMVRVTVVPTPGRAGEPVTLVIEHPDGTRTVPLPPDTSPEEARAAAERLAEEEGLDVAEVVFEASAGGS [r16_753_JUSTAS] | 1.57 ± 0.41 kJ/mol |
| SPIKLPIVFPNLPKEEAKEAVEALAKELEEKYGFKIEVEVEELRAPDGKLVAVVAIATIEKFGEEDKLLFSA [r9_21_TrMRF] | 5.03 ± 0.753 kJ/mol |
| SAGGSAGGSAGGMRRVTIWFPIPEDEEITFKLPGNGVEVEIEPDKGNGFFRITVYLPDGSAGGSAGGSAGGS [r10_1138_TrROS] | 8.11 ± 0.41 kJ/mol |
| IETGEYDIEIELPAPNGYKVKVKFKFVKVDPENGKVYVEVELEVTLPGGKPIKLPLRLVMPAEEIKKFLESS [r1_371_TrMRF] | 19.4 ± 0.385 kJ/mol |
| SAGGSAGGMTKDDIIEKLKKEYPDKDVKVLKVEESVLPSGKILAKVTLEFPEEGKTFEKTFEVESAGGSAGG [r6_572_JUSTAS] | 11.3 ± 0.837 kJ/mol |
| SAGGFIVVPIKAKSLEEALEKAREIAAALGIPGTLEDPRVDLDDFLKNYKPDTEVRVYVRHPDGVIDELSAG [r5_503_TrMRF] | 3.67 ± 0.46 kJ/mol |
| SAGGSAGGMTLEIEVNGKKIKIEVIKDKETNRYFVRITVDGKEVLIEADSKEDALKAIKELLKKSAGGSAGG [r6_715_TrROS_Hall] | 17.2 ± 0.322 kJ/mol |
| SAGGSATVTVTLVVRDPATGELTTVTATVTLEAAPAPVSVSLSLSLSRDPNGNLSLSLSVSVTVEGSAGGSA [r2_326_TrROS_Hall] | > 25.1 kJ/mol |
| SAGGSAGGSAGGGSSVITTTETDPANGLLTTTTTTINGSETVPSSTVSPVPPPPPPSTLSAGGSAGGSAGGS [r10_354_JUSTAS] | 4.64 ± 0.502 kJ/mol |
| SAGGSAGGSAKKPVTGTIILKYPGTPEDALAKAKEIAKELESRGYSVSAEFLPNGYIKITLPSAGGSAGGSA [r18_262_TrMRF] | 7.26 ± 0.41 kJ/mol |
| SAGGSAGGSAGKIKIEKDKNGNYRVILKNGKVYEFKSIEEAKEELKKKFPNIKEIEIVKTSAGGSAGGSAGG [r11_806_TrROS_Hall] | 16.2 ± 1.26 kJ/mol |
| KKEEEIKKLEEAVREALKKKGLEVKIVEVKKNKNGEYTLTIELKDGKKIEITIKKEKMTVEDILKKLKELLS [r1_279_TrROS_Hall] | 17.3 ± 0.753 kJ/mol |
| SKTVVVEINGYLIVVEEKKLENGETYYTVKIVNKKTKKVIEVKAKSKEEAEKAVLEALRKLFPDEELKKLSA [r9_749_TrROS_Hall] | 10.5 ± 1.46 kJ/mol |
| SDIKIENYERNPGNGMYMWTVKLPDDGKKIEIMYPPGGIYISVEHPGKKKMFPFKSWEDMLDQVKDLLKNSA [r9_527_TrROS] | 5.71 ± 1.09 kJ/mol |
| SAGGSAGGGMLNGLLEKLLLAEPVEVDPVTTTVTPSPNGTVTTTPVYSTADDSVLTETQTTPVASAGGSAGG [r6_326_JUSTAS] | -0.265 ± 0.586 kJ/mol |
| SAGGSAGGSAGGAIVTTTTTKAPVFAPDGTVVAEITTTTVTVILPETPPSLLPEVLERLASAGGSAGGSAGG [r7_450_JUSTAS] | 2.85 ± 0.669 kJ/mol |
| SMKKTIIIKVKKEDMTPEEIAKKLAELGYEVEIVDVEYDEETEEVYITVEIYDENGELIEKIEIKLPRKDSA [r9_879_TrROS_Hall] | 3.83 ± 1.76 kJ/mol |

| Sequence | folding stability dG unfold |
| --- | --- |
| SAMKIKVPPGAEIITEDGEKIEPGQEVEVTDIEFDEETGEVHITVKIKNPETGEEIEEKVTIRFPKEEESAG [r14_258_TrROS_Hall] | 4.55 ± 0.628 kJ/mol |
| SMIDIEISTDPNNPNVITVTAKYPDPEKAKEYLEKKLKEEYDVISISYEYEPENPIITFTFTYASPEKPQSA [r9_1120_JUSTAS] | 11.7 ± 0.628 kJ/mol |
| SAGGSAGGSETVTLTLVVDSPEEAKALIDALKKAGIKEVTLEEKDGKLVLTITMSKEELEKLKSAGGSAGGS [r12_846_TrROS_Hall] | 14.3 ± 0.837 kJ/mol |
| SAGGSAGGSAEPVRLVVVTPGFPDGPPIPVEELEALLEAEDVTVVDPFTIPELGYVVLLVEASAGGSAGGSA [r18_466_TrMRF] | 4.5 ± 0.418 kJ/mol |
| SAGGVWIEITFLMPAEQLLNFIKNLAEEFGYQVNIDVKIQPYPNGPMVTHEIEIKPLPPKVPEEDQESAGGS [r16_262_TrROS] | 15.1 ± 0.669 kJ/mol |
| SAGMKKKKIKKVEIEIKKGEKTIRVKLENGEEIEYKFKEEDLEEALKKIAEKLGLKKGDKIKIVEIEIESAG [r5_923_TrROS_Hall] | 5.4 ± 1.38 kJ/mol |
| SAGGSAGGSAMKVITLPENADINKVIEAVEAGSPILVKIVDPKSSKTTDLPLPSKEAVEKLSAGGSAGGSAG [r3_362_JUSTAS] | -1.38 ± 0.628 kJ/mol |
| SAGGSAGGSAGPALRIPFLVERPDGSPFWAEARVYEDGTVELRIYGDEPIATFTFPLDELSAGGSAGGSAGG [r11_327_TrMRF] | 7.01 ± 0.628 kJ/mol |
| SAGGSAGGSAGGMKIKNAEIVEVKEENGKKTLLVKNKETGKYYKITIDDNKITIEEVKVPSAGGSAGGSAGG [r7_940_TrROS_Hall] | 16.2 ± 2.18 kJ/mol |
| SAGWYIKVEVYYGGKKHTFMIPRKQAKELRKKYPPGDEIPIPFNGRDVEIRVQVIPPPPPSPEDAADNKSAG [r5_669_TrROS] | 10.2 ± 0.711 kJ/mol |
| SAGGLAPVYKTEDGVYLITPYNPETGELLETIPISEEDIEELSKEYGRDLTIEEIVKKLGYETEITVASAGG [r13_836_TrMRF] | 4.05 ± 0.251 kJ/mol |
| SAGGSAGGSAMIETTVSFDPSTGTVTTTTTYTDPNGGYTKSSTTVTPVPTPAPPPPAAPNRVSAGGSAGGSA [r18_361_JUSTAS] | 2.31 ± 0.393 kJ/mol |
| SAGGGPFGIPFPFPIEDPDRLDLVEGLVAELEEFFRSLGAGPLTAERVGDTTYVVLVPFDGKPIVSGSAGGS [r16_703_TrMRF] | 7.54 ± 0.372 kJ/mol |
| SMLVLRLPDNRLAVLEYDPETKRLRVLVVDPESGRLTVAEIHPETGEITVDEYTLLPNGEPLPHRFELPLSA [r9_1073_TrMRF] | 11.4 ± 0.243 kJ/mol |
| SAGGKKKLTLEIKIKVPKEEEEKAKEKAKKLAEELAKKLKEAGYKVKVTVEIDEETGEITVKVEVELPSAGG [r13_755_TrROS_Hall] | 14.4 ± 2.05 kJ/mol |
| SAGGSAGGSAGGSGPVPVTIKSVTTYPEKDVYKVETVPATPEPITITLSPEELSDVVILSAGGSAGGSAGGS [r4_51_JUSTAS] | -2.35 ± 0.795 kJ/mol |
| SALKIEISFPGNAGEVRERVLGREDGSYEVEFLVTFPTPGDGIPSVLRVTYRVDPVSGKIEPRLEPVDASAG [r14_590_TrMRF] | 11.1 ± 0.218 kJ/mol |
| SAGGSAGGMVIVFDKKNKTIYIYDKKTGKKIEIKVKSIEEAKEAIKKLFPNKKVEIVEVKIFKPSAGGSAGG [r6_286_TrROS_Hall] | 7.35 ± 0.837 kJ/mol |
| SAGGSAGGSDDDDAKKAMEQMKPPPIPIKIQVKIEYDPSLGWLKVEIHFFGFGLRITGTIPIDSAGGSAGGS [r20_230_TrROS] | 17.1 ± 2.01 kJ/mol |
| SAGGMSPELKKNKNVEKVIYNKKTGKVFVYNKKTKKLYIFTKNGKKIEIKMSKDEVEKLLKKGFKPISAGGS [r16_745_TrROS_Hall] | 12 ± 0.837 kJ/mol |
